Experimental data reported in patent publication US20100196385A1 (AstraZeneca / MedImmune, published 2010).

B1: 2H10 (antibody, IgG4, V domains shown)
VH: QVQLVESGGGVVQPGRSLRLSCAASGFTFSRHGMHWVRQAPGKGLEWVAVVWFDGSNIYYADSVKGRFTISRDNSKNTLYLQMNSLRAEDTAMYYCARDSRIAAADYWGQGTLVTVSS
VL: SYELTQPPSVSVSPGQTVSITCSGDKLGDKYVCWYQQKPGQSPVLVIYQESKRPSGIPERFSGSSSGNTATLTISGTQAMDEADYYCQTWDSSLVVFGGGTKLTVL
notes: Fully human; used for IgG4 rows and where no isotype is printed; also called 2H10 IgG4
B2: 4B4 (antibody, IgG4, V domains shown)
VH: QVLLIQSGAEVKKPGASVQVSCKASGYTFTNYGVIWVRQAPGQGLEYMGWISAYNGNTNYAQKLQDRVTMTSDTSTTTAYMELRSLRSDDTAVYYCARELGSSFDYWGQGTLVTVSS
VL: SYELTQPPSVSVSPGQTARITCSGDALPKKYAYWYQQKSGQAPVLVIYEDIKRPSGIPERFSGSSSGTMATLTISGAQVEDEADYYCFSTDNSGDHSVFGGGTKLTVL
notes: Fully human; used for IgG4 rows and where no isotype is printed; also called 4B4 IgG4; 4B4.1
B3: 21H3 (antibody, IgG4, V domains shown)
VH: QVQLVQSGAEVKKPGASVKVSCKASGYTFTNYGITWVRQAPGQGPEWMGWISAYNGNTNYAQKLQDRVTVTTDTSTSTAYMELRSLRSDDTAVYYCARDRVPRIPVTTEAFDIWGQGTMVTVSS
VL: QSVLTQPPSASGTPGQRVTISCSGSSSNIGSYFVYWYQQLPGTAPKLLIYRNNQRPSGVPDRFSGSESGTSASLAISGLRSEDEADYYCAAWDDSLSGHWVFGGGTRLTVL
notes: Fully human; used for IgG4 rows and where no isotype is printed; also called 21H3 IgG4
B4: 9G8 (antibody, IgG4, V domains shown)
VH: QLQLQESGPGLVKPSETLSLSCTVSGGSISSSSSYWGLIRQPPGKGLEWIGSIYYSGSTYYSPSLKSRVSISVDTSKNQFSLKLSSVTAADTAVYFCARQGYGGHPDVFDIWGQGTMVTVSS
VL: SSELTQSPSVSVSPGQTARITCSGDKLGDVYVCWYQQKTGQSPVLVIYEDTKRPSGIPERFSGSNSGNTATLTISGTQVMDEADYYCQAWDSTTAVIFGGGTKLTVL
notes: Fully human; used for IgG4 rows and where no isotype is printed; also called 9G8 IgG4

Assays:
[1] = target: T1, human soluble DLL4 (R&D systems catalog #1056-D4-050) (human, UniProt Q9NR61 27-524); assay: Biacore T100, antibody immobilised, soluble human DLL4 as analyte
T1 construct: Catalog number as printed; perhaps the same product as #1506-D4; also called antigen DLL4
Procedure, shortened: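 Anti-DLL4 antibodies amine-coupled to CM5 chip (<200 RU). Soluble DLL4 injected from 32-64 nM in 3-fold dilutions, in triplicate, in HBS-P with 0.1 mg/ml BSA at 23° C. ka, kd and KD from a global 1:1 fit.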

human Jagged1 [2] = target: T2, human Jagged1 (human, UniProt P78504 34-1218); assay: FACS, 5 µg/ml, 293T cells with human Jagged1
T2 construct: whole, on cells
Procedure, shortened: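 Purified anti-DLL4 antibodies were diluted in PBS with 2% FCS and incubated with cells (50000/well, same buffer) for 1 h at 4 °C. Binding was read by flow cytometry as the shift in geometric mean fluorescence in transfected cells relative to mock-transfected cells.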

human Dll1 = target: T3, human Dll1 (human, UniProt O00548 18-723); assay: FACS, up to 300 µg/ml, HEK-293 cells stably overexpressing human Dll1
T3 construct: whole, on cells
T3 sequence (looked up): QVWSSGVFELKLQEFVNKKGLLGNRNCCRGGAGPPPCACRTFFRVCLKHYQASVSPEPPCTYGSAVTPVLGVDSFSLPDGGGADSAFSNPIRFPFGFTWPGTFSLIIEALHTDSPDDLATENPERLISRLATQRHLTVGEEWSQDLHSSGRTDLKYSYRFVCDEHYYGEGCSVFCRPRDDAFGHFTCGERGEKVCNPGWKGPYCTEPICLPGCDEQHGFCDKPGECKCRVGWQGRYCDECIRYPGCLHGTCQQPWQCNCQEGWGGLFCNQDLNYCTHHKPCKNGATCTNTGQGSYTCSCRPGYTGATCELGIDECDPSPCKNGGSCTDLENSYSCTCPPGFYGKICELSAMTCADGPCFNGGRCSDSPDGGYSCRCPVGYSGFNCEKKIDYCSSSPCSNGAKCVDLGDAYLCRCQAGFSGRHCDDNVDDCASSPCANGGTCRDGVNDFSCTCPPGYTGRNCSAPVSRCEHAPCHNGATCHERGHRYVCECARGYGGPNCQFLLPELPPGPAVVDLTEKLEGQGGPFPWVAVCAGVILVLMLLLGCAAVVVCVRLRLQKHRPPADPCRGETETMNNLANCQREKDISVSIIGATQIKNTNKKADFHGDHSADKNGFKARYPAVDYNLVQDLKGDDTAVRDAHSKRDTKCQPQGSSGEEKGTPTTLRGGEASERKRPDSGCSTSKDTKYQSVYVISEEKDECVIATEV

human Jagged1 [3] = target: T2, human Jagged1; assay: FACS, up to 300 µg/ml, HEK-293 cells stably overexpressing human Jagged1
[4] = target: DLL4 extracellular domain (R&D systems, catalog #1506-D4/CF) (UniProt Q9NR61 27-529, limits assumed); assay: cell-based or functional assay
full length human DLL4 [5] = target: T4, full length human DLL4 (human, UniProt Q9NR61 27-685); assay: FMAT competition, supernatant vs Alexa-647 human Notch1/Fc, 293T cells with human DLL4
T4 construct: whole, on cells; also called native DLL4 expressed in HEK293 cells
Method: Transfected and untransfected 239T cells were reconstituted in PBS containing 2% FCS and 5000 transfected and 17500 non-transfected cells were plated in 20 μl into wells of a 384-well tissue culture plate (Corning Costar, catalog #3712). Subsequently, 20 μl of hybridoma supernatant was added and plates were incubated at 4° C. for 1 h, at which time 20 μl of Alexa-647 labeled human Notch1/Fc was added at a final concentration of 6.7 ng/ml. After a further 3 h incubation at 4° C., the amount of bound Notch1/Fc was determined by reading the fluorescence in each well using an FMAT 8200 instrument (Applied Biosystems). Results are expressed as % inhibitions with the minimum inhibition in the assay being determined by the effects of non-DLL4 binding supernatants prepared in a similar way as described in example 2, and the maximum inhibition being defined as the signal obtained in the presence of a saturating concentration of unlabeled Notch1/Fc. N.T.=not tested

full length human DLL4 [6] = target: T4, full length human DLL4; assay: FACS titration, HEK293 cells with human DLL4
Procedure, shortened: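 Antibody titration on HEK293 cells expressing full-length human DLL4, detected with anti-human IgG-Fc-Cy5 plus 7AAD for 30 minutes at 4° C. by flow cytometry. KD estimated by nonlinear fit of mean fluorescence vs total mAb concentration, with receptor number, background and proportionality constant floating.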

T1 sequence (Q9NR61 27-524 limits assumed): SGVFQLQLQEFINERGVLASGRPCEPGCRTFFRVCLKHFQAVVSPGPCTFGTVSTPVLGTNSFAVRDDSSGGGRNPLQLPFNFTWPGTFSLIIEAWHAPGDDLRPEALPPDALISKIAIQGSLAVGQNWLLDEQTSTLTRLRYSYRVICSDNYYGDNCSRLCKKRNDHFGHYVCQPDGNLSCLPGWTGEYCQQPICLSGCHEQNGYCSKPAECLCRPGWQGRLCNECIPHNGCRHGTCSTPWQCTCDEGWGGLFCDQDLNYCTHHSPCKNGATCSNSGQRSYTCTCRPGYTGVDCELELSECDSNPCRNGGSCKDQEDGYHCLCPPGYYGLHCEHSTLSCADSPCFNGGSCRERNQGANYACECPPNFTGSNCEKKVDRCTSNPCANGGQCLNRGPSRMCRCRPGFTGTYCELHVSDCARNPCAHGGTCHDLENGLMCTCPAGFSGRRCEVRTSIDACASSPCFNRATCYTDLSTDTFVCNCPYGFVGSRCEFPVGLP
T4 sequence (Q9NR61 27-685): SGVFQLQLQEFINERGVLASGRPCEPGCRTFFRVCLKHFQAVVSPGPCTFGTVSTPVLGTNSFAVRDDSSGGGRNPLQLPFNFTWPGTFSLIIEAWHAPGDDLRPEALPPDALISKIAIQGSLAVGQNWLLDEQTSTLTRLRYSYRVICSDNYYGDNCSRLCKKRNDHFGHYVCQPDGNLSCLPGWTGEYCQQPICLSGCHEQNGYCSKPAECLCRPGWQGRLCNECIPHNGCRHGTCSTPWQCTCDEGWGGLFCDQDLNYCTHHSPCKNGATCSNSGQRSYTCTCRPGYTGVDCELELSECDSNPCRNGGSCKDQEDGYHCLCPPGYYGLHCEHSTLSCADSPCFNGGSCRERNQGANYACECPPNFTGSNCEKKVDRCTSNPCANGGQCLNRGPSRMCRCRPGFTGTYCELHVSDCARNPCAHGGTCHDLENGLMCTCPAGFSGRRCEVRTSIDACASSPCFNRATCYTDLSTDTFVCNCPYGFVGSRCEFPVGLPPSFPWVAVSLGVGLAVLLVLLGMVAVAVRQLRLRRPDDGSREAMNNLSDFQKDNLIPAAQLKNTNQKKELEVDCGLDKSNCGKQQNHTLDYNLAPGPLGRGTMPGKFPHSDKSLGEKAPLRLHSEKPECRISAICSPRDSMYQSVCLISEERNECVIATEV
T2 sequence (P78504 34-1218): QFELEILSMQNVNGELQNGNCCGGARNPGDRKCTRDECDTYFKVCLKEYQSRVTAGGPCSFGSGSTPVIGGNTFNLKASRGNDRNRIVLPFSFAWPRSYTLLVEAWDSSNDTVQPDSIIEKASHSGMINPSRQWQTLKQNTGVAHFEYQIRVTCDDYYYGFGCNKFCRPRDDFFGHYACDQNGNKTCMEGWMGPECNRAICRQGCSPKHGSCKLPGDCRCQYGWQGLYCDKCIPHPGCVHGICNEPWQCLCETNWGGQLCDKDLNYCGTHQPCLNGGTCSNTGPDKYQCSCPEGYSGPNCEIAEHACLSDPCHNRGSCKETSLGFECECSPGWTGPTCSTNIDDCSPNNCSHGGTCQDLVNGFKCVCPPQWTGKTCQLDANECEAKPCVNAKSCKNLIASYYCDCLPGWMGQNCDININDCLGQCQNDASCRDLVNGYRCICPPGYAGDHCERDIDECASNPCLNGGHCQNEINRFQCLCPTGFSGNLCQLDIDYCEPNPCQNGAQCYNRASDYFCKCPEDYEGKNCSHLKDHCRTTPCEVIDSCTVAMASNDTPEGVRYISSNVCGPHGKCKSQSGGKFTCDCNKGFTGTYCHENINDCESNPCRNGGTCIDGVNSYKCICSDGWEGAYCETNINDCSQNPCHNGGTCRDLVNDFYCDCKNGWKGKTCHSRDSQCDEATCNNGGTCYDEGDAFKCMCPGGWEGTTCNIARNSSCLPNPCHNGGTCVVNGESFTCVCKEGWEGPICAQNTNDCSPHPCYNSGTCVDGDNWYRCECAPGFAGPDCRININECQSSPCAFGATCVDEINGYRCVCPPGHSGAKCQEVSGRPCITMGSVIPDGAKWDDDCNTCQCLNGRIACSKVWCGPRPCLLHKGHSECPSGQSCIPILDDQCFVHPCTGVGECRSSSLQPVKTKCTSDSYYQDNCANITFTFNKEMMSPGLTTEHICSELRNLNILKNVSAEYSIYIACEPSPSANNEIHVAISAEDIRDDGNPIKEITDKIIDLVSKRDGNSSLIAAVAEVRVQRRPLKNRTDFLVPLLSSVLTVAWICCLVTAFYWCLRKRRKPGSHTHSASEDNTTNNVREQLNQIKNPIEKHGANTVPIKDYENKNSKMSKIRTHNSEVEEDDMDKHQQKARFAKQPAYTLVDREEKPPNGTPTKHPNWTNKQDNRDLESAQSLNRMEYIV
Chain of DLL4 extracellular domain (R&D systems, catalog #1506-D4/CF) (Q9NR61 27-529 limits assumed): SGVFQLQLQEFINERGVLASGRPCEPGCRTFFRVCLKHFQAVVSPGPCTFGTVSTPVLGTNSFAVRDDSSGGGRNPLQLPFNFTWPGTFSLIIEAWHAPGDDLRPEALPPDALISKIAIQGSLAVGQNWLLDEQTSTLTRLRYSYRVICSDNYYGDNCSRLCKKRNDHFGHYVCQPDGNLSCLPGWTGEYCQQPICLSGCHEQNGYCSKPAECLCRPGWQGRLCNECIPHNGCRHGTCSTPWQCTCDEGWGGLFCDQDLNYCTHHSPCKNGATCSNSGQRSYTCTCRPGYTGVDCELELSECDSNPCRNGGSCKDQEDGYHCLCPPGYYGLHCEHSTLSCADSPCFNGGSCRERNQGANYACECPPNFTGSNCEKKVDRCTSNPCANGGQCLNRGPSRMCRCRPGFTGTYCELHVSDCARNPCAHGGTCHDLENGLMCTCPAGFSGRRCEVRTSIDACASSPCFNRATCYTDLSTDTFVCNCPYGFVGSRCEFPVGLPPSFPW

| Binder | Kd [1] | koff [1] | kon [1] | Jagged1/293T X Geo mean (human Jagged1 [2]) | fold over background (human Dll1) | fold over background (human Jagged1 [3]) | % inhibition 1 µg/ml, AVERAGE (HUVEC proliferation on coated DLL4) [4] | % inhibition 1 µg/ml, N = 1 (HUVEC proliferation on coated DLL4) [4] | % inhibition 1 µg/ml, N = 2 (HUVEC proliferation on coated DLL4) [4] | % inhibition 10 µg/ml, AVERAGE (HUVEC proliferation on coated DLL4) [4] | % inhibition 10 µg/ml, N = 1 (HUVEC proliferation on coated DLL4) [4] | % inhibition 10 µg/ml, N = 2 (HUVEC proliferation on coated DLL4) [4] | % inhibition n = 1 (full length human DLL4 [5]) | % inhibition n = 2 (full length human DLL4 [5]) | % inhibition n = 3 (full length human DLL4 [5]) | Mean % inhibition (full length human DLL4 [5]) | Kd (full length human DLL4 [6]) |
| --- | --- | --- | --- | --- | --- | --- | --- | --- | --- | --- | --- | --- | --- | --- | --- | --- | --- |
| B1 | 981 pM | 4.02e-05 s⁻¹ | 40900 M⁻¹ s⁻¹ | 9.28 | < 2.5 fold | < 2.5 fold | 93% | 98% | 87% | 103% | 110% | 95% | 107% | 150% | 124% | 127% | 882 pM |
| B2 | 283 pM | 3.33e-05 s⁻¹ | 118000 M⁻¹ s⁻¹ | 16.8 | < 2.5 fold | < 2.5 fold | 93% | 101% | 84% | 97% | 102% | 92% | – | – | – | 121% | 516 pM |
| B3 | 481 pM | 0.000152 s⁻¹ | 317000 M⁻¹ s⁻¹ | 15.5 | – | – | 93% | 86% | 99% | 89% | 88% | 89% | – | – | – | – | 359 pM |
| B4 | 132 pM | 1.36e-05 s⁻¹ | 103000 M⁻¹ s⁻¹ | 17.4 | < 2.5 fold | < 2.5 fold | 62% | 52% | 71% | 77% | 72% | 82% | 112% | 98% | 143% | 118% | 999 pM |
